Patent US20260242454A1

Key:
[1] = biological target: recombinant human TGF-β1 (human) (UniProt P01137); test: ELISA, TGF-β1 coated on plate, anti-human IgG Fc-HRP detection
[2] = biological target: recombinant human TGF-β3 (human) (UniProt P10600); test: ELISA, TGF-β3 coated on plate, anti-human IgG Fc-HRP detection
Chain of UniProt P10600 (P10600 301-412 limits assumed): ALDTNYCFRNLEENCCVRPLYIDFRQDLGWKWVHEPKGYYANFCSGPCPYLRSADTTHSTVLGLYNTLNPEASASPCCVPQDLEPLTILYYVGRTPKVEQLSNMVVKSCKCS

Chain of UniProt P01137 (P01137 279-390 limits assumed): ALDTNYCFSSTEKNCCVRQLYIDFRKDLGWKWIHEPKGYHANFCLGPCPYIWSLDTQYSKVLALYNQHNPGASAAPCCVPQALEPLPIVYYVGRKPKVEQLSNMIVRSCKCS

- EC50 [1]: 2.08 nM
- EC50 [2]: 3.32 nM
Substance: M7824
